Holding throughout (assay type): cell-based
The target in assay [1] is T1, αvβ3 integrin (Homo sapiens, UniProt P05106+P06756).
T1 construct: expressed in transfected cells; host or cells: K562
In words: Adhesion of K562-αvβ3 cells to GST-LAPβ1 (amino acids 242–252) coated wells. As to conditions: matrix titration or 0.5 μg coated, 2 mM MgCl2.
Description: All proteins were coated onto Maxisorp 96-well plates (Nunclon) overnight at 4° C. Each protein was diluted in PBS at the concentrations indicated, and a total volume of 100 ul added per well. Plates were washed twice in PBS then blocked with 3% BSA/PBS for 1 hour at 37° C., and finally washed twice in PBS. Cells were pelleted and washed once in HBSS (Sigma) then spread in HBSS, 25 mM HEPES pH 7.5 at the desired cell concentration (K562-WT, K562-αvβ6, HL60 at 6×10^6 cells/ml, K562-αvβ5, K562-αvβ3 at 4×10^6 cells/ml, 100 ul per well), in the presence of either 2 mM MgCl2 or 0.5 mM MnCl2 as indicated in the figure legends. […] For antibody inhibition cells were pre-incubated with the antibody (10 μg/ml) on ice for 5 minutes. Cells were then allowed to attach for 35 minutes at 37° C., washed twice with PBS, once in ethanol, and fixed in ethanol for 20 minutes at room temperature. For quantitation cells were visualised by staining with 0.1% crystal violet (Sigma) for 10 minutes then lysed in 0.5% Triton X-100 (Sigma) and read optically at 570 nm in a Wallac Victor plate reader.

The target of assay [2] is T1, αvβ3 integrin. Description: Adhesion of K562-αvβ3 cells to LAP-β1 coated wells. As to conditions: coated at 10 μg/ml, 2 mM MgCl2.
Description: Cells were allowed to attach to wells coated with quantities of LAP-β1 indicated. […] The buffer used was HBSS supplemented with 25 mM HEPES pH 7.5, and 2 mM MgCl2. Each data point represents the mean±SD of duplicated samples.
The buffer used was HBSS supplemented with 25 mM HEPES pH 7.5, and 2 mM MgCl2. Adhesion to each ligand in the absence of compound was taken as a 100% binding value, with adhesion to BSA alone as a 0% binding value. The 100% binding values corresponded to the following absorbances at 570 nm: Fibrinogen=0.8, Vitronectin=0.9, LAP-β1=0.9. Each data point represents the mean±SD of duplicated samples. […]
For assay [3], the target named is T2, αvβ6 integrin (Homo sapiens, UniProt P06756+P18564).
T2 construct: expressed in transfected cells; host or cells: K562
Description: Adhesion of K562-αvβ6 cells to LAP-β1 coated wells. As to conditions: coated at 10 μg/ml, 0.5 mM MnCl2. Here is the method: (§1) Cells were allowed to attach to wells coated with LAP-β1 at 10 μg/ml. Cells were incubated for 35 minutes at 37° C. in HBSS supplemented with 25 mM HEPES pH 7.5, and either 0.5 mM MnCl2 (K562-WT, HL60, K562-αvβ6) or 2 mM MgCl2 (K562-αvβ3, K562-αvβ5). Each bar represents the mean±SD of duplicated points.
Cells were allowed to attach to wells coated with LAP-β1 at 10 μg/ml. Cells were incubated for 5 minutes on ice, then for 35 minutes at 37° C., in the presence of antibodies at 10 μg/ml as indicated. The buffer used was HBSS supplemented with 25 mM HEPES pH 7.5, and 2 mM MgCl2. Each bar represents the mean±SD of duplicated samples.
K562-WT (wild-type), K562-αvβ6, K562-αvβ5, K562-αvβ3, and HL60 cells were maintained in 1:1 RPMI 1640, Hepes modification (Gibco): Dulbecco's Minimum Essential Medium (DMEM), Hepes modification (Sigma) supplemented with L-glutamine (Gibco) and 10% fetal calf serum (FCS). In addition K562-αvβ3, K562-αvβ5, and K562-αvβ6 cells were supplemented with geneticin (G418, Gibco) at 1 mg/ml. […]
All proteins were coated onto Maxisorp 96-well plates (Nunclon) overnight at 4° C. […] For quantitation cells were visualised by staining with 0.1% crystal violet (Sigma) for 10 minutes then lysed in 0.5% Triton X-100 (Sigma) and read optically at 570 nm in a Wallac Victor plate reader.

The target of assay [4] is T3, αvβ5 integrin (Homo sapiens, UniProt P06756+P18084).
T3 construct: expressed in transfected cells; host or cells: K562
Description: Adhesion of K562-αvβ5 cells to LAP-β1 coated wells. As to conditions: coated at 10 μg/ml, 2 mM MgCl2. Here is the method: as §1
(§2) K562-WT (wild-type), K562-αvβ6, K562-αvβ5, K562-αvβ3, and HL60 cells were maintained in 1:1 RPMI 1640, Hepes modification (Gibco): Dulbecco's Minimum Essential Medium (DMEM), Hepes modification (Sigma) supplemented with L-glutamine (Gibco) and 10% fetal calf serum (FCS). In addition K562-αvβ3, K562-αvβ5, and K562-αvβ6 cells were supplemented with geneticin (G418, Gibco) at 1 mg/ml. All transfected cells were generated by transfecting K562 cells with pCDNA-3 constructs containing individual integrin cDNAs, using lipofectamine plus (Gibco BRL).
(§3) All proteins were coated onto Maxisorp 96-well plates (Nunclon) overnight at 4° C. Each protein was diluted in PBS at the concentrations indicated, and a total volume of 100 ul added per well. Plates were washed twice in PBS then blocked with 3% BSA/PBS for 1 hour at 37° C., and finally washed twice in PBS. […] For quantitation cells were visualised by staining with 0.1% crystal violet (Sigma) for 10 minutes then lysed in 0.5% Triton X-100 (Sigma) and read optically at 570 nm in a Wallac Victor plate reader.

In assay [5] the test system is K562-WT cells. In words: Adhesion of K562-WT cells to LAP-β1 coated wells. As to conditions: coated at 10 μg/ml, 0.5 mM MnCl2. The procedure: as §1, §2, §3
Assay [6] deals with HL60 cells. Description: Adhesion of HL60 cells to LAP-β1 coated wells. As to conditions: coated at 10 μg/ml, 0.5 mM MnCl2. Here is the method:
as §1, §2, §3

Here are results for two substances from patent US7037666B2, “Methods for identifying modulators of the interaction between lap (latency associated peptide) and intergrin αvβ3 and medical use thereof” (SmithKline Beecham Corporation, priority 2000, dated 2006).

Ends that are not written are not given here.

T1 sequence (P06756 31-889 limits assumed): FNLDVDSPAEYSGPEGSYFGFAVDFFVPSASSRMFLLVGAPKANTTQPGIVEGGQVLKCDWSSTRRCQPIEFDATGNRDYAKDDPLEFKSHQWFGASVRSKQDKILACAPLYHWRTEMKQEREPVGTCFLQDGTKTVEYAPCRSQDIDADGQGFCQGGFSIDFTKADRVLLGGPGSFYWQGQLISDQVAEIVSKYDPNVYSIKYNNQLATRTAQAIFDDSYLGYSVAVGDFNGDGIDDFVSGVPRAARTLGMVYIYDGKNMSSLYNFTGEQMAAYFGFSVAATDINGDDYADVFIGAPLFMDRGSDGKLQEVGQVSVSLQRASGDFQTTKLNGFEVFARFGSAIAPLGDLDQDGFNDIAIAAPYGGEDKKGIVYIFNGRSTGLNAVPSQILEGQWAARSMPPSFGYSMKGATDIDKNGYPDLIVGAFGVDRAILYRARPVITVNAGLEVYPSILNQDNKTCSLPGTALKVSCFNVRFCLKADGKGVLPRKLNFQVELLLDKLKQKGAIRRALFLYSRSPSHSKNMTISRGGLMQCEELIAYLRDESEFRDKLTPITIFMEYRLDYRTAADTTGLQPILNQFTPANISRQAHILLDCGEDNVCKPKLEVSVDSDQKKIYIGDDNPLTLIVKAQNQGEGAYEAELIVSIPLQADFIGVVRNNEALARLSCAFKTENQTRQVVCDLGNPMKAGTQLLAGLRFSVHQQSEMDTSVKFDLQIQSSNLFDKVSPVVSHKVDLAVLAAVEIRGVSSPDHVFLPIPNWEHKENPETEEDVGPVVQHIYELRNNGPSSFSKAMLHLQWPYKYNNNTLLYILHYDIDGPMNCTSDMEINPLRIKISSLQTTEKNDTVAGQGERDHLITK
T1 sequence (P06756 891-1048 partner limits assumed): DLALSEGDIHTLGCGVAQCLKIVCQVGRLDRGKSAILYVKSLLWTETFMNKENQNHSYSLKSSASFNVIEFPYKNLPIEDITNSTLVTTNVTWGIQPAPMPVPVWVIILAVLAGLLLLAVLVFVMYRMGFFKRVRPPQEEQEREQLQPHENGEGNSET
T1 sequence (P05106 27-788): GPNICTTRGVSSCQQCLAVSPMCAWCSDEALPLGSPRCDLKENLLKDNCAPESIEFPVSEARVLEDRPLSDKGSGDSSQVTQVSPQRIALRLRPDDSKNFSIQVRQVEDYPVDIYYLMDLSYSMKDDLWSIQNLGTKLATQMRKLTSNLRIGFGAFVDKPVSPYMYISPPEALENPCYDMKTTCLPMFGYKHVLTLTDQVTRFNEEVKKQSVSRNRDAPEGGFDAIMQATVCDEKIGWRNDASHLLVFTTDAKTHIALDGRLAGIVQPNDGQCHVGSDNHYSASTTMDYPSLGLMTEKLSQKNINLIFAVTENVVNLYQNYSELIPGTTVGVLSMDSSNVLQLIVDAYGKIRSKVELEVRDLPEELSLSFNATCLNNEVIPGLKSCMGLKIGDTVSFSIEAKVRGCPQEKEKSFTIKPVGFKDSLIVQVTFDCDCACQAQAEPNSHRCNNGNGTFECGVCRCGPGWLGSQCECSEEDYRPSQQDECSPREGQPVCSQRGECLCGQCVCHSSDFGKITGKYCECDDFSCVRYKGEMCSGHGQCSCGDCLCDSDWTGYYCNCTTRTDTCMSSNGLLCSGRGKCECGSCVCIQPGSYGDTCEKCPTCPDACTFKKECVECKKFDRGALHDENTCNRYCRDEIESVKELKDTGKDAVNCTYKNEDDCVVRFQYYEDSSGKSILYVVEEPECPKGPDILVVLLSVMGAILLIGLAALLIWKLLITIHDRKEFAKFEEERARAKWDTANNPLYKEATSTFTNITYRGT
T2 sequence (P06756 31-889 limits assumed): as the sequence (P06756 31-889 limits assumed) above
T2 sequence (P06756 891-1048 partner limits assumed): as the sequence (P06756 891-1048 partner limits assumed) above
T2 sequence (P18564 22-788): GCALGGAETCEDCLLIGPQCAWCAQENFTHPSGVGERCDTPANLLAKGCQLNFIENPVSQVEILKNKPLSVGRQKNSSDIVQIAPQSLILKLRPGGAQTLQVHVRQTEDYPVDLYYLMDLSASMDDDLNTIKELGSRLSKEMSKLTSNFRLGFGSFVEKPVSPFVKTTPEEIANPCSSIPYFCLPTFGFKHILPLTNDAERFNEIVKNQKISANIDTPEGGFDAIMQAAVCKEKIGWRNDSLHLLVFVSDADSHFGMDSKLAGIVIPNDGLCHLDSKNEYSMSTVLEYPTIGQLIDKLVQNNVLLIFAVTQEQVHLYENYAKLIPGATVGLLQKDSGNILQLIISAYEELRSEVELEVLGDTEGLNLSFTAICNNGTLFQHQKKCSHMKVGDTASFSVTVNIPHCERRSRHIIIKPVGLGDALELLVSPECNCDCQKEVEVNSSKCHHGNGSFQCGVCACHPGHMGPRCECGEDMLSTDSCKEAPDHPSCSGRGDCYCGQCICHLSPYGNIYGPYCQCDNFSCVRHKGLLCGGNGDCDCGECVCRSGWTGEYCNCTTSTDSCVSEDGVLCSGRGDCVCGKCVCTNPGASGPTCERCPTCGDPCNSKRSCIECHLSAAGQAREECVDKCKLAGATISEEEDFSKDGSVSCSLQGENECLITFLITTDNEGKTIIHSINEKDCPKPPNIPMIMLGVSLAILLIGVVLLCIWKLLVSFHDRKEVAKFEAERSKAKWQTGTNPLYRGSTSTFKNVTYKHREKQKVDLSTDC
T3 sequence (P06756 31-889 limits assumed): as the sequence (P06756 31-889 limits assumed) above
T3 sequence (P06756 891-1048 partner limits assumed): as the sequence (P06756 891-1048 partner limits assumed) above
T3 sequence (P18084 24-799): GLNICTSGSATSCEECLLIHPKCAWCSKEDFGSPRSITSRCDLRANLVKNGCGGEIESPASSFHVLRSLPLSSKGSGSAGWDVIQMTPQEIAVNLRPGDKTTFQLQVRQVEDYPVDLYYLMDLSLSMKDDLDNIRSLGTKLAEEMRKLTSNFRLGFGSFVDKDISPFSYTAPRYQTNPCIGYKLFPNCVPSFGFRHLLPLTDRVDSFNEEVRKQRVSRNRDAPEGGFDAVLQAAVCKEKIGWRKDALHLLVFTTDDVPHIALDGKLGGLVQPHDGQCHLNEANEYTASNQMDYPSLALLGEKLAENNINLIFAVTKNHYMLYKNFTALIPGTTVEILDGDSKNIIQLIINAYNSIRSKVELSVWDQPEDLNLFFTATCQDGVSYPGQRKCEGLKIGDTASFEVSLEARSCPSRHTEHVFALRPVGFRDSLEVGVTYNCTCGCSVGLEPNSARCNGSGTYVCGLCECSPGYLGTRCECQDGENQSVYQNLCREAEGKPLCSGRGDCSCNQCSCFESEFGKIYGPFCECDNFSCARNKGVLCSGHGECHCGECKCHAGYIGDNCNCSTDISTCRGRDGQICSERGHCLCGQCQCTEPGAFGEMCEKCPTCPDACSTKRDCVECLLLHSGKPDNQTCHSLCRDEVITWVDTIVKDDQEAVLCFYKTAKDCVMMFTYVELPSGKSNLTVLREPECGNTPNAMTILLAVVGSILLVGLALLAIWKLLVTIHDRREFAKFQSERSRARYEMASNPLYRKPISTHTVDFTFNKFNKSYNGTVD

On to “GST-LAPβ1 (aa242–252): peptide fragment of LAPβ1 (amino acids 242–252, GRRGDLATIHG) containing the RGD motif, expressed as a GST fusion protein in E. coli ({GST}-GRRGDLATIHG; UniProt P01137 242-252, looked up, fragment)”, for which, in assay [1], the “Ability to support adhesion of K562-αvβ3 cells” value is on record as “supported adhesion of K562-αvβ3 cells similarly to intact LAPβ1”.
In the case of “LAP-β1: latency associated peptide-β1 of TGF-β1, amino acids 30 to 278 of SEQ ID NO: 1, obtained from Sigma”, in assay [2], the “Adhesion of K562-αvβ3 cells to the coated protein” value is given as “interacted strongly”. Also, in assay [3], the “Adhesion of K562-αvβ6 cells to the coated protein” value is reported as “adhered”. In addition, the “Adhesion of K562-αvβ5 cells to the coated protein” value in assay [4] was “bound slightly”. Moreover, in assay [5], the “Adhesion of K562-WT cells to the coated protein” value is on record as “bound slightly”. In assay [6], the “Adhesion of HL60 cells to the coated protein” value is given as “failed to bind”.
